Results on 6 molecules are retold here after paper PMC12400496 (Bioscience Reports, 2025).

The target of data set [1] is T1, CtcQ (Kitasatospora aureofaciens, UniProt S4S3E3).
T1 construct: full length; crystal: N-terminal His10 tag cut by PreScission protease; reductase assay: C-terminal His6 tag kept; homodimer; primers encode N-terminus MPPEPLS and C-terminus TLAAEG
The data set is described as follows: X-ray crystal structure (co-crystal). In kind it is binding. The note with it: co-crystallised with 5 mM NAD and 5 mM FAD, pH 7.5.

Data set [2] has as its target T1, CtcQ. Kind of data set: NADH oxidation, absorbance at […] nm. The note with it: 0.1 mM FMN, 1 mM NADH, 1.7 uM CtcQ (C-terminal His6), 20 mM HEPES pH 7.5. In kind it is biochemical.
The target of data set [3] is CtcP (1-516), C-terminal truncation mutant lacking the helical hairpin (residues 1-516, P516G) (Kitasatospora aureofaciens). The data set is described as follows: SEC; S-200 column in 40 mM Tris pH 8.0, 100 mM NaCl, 2 mM BME; position of monomeric PltM as marker. For orientation: Size exclusion chromatography separates by hydrodynamic size, large species first.
The target of data set [4] is halogenase CtcP from Kitasatospora aureofaciens, full-length (Kitasatospora aureofaciens). Kind of data set: crystal structure; CtcP in complex with FAD and Cl-; crystals from 0.1 M HEPES pH 7.5, 26% PEG 4000, 0.2 M Li2SO4, 21 °C, soaked with 1 mM FAD for 16 h.
Data set [5] shares this target. Kind of data set: SEC; S-200 column in 40 mM Tris pH 8.0, 100 mM NaCl, 2 mM BME; position of monomeric PltM as marker.
The target is the same in data set [6]. Kind of data set: crystal structure; CtcP in complex with PEG and sulfate; hanging drops, 100 mM HEPES pH 7.0, 1.6 M ammonium sulfate, 2% PEG 400, 21 °C.
The target in another data set is T2, CtcP (Kitasatospora aureofaciens, UniProt A0A1E7MYN1).
T2 construct: full length, 555 residues; N-terminal His10 tag cut by PreScission protease; expressed in E. coli BL21(DE3); homodimer; primers encode N-terminus MTDTTAD and C-terminus AMRVKP
Kind of data set: X-ray crystal structure (FAD soak). The format is binding. As to conditions: chloride ion bound near isoalloxazine ring; soaked with 1 mM FAD, 20 mM NaCl, pH 7.5, 16 h.

Data set [7] deals with the molecule itself. Kind of data set: crystal structure; CtcQ in complex with FAD and NAD; hanging drops, 0.1 M Tris pH 7.5, 0.6 M KH2PO4, 0.6 M NaH2PO4, 21 °C, 5 mM NAD and 5 mM FAD.

T2 sequence (A0A1E7MYN1 whole entry): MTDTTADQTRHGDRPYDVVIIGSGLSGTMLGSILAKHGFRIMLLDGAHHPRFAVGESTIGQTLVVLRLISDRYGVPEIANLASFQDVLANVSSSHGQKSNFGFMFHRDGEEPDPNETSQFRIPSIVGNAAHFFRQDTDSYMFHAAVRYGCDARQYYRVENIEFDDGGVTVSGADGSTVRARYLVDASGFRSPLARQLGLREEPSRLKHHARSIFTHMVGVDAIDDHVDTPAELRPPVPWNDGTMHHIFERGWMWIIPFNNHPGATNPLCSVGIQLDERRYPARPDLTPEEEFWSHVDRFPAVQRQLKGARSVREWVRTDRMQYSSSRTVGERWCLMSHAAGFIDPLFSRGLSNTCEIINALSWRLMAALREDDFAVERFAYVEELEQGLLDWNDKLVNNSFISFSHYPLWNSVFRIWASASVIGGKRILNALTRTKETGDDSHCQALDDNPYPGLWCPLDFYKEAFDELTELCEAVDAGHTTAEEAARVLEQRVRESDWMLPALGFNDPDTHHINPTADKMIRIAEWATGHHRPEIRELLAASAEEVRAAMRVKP

Turning to `NC(=O)c1ccc[n+]([C@@H]2O[C@H](COP(=O)(O)OP(=O)(O)OC[C@H]3O[C@@H](n4cnc5c(N)ncnc54)[C@H](O)[C@@H]3O)[C@@H](O)[C@H]2O)c1` [NAD], the “X-ray crystal structure (co-crystal)” value at CtcQ [1] (U-shaped, stacked on FAD, text also calls the bound molecule NADH) is “determined the crystal structure of CtcQ in complex with FAD and NAD”.

As for `Cc1cc2nc3c(=O)[nH]c(=O)nc-3n(C[C@H](O)[C@H](O)[C@H](O)COP(=O)(O)O)c2cc1C` [FMN], the “NADH oxidation, absorbance at 340 nm” value on CtcQ [2] is listed as “CtcQ, which was highly active with either FAD or FMN as a substrate”.

Take “CtcP (1-516), C-terminal truncation mutant lacking the helical hairpin (residues 1-516, P516G) (domain or fragment)”: the stoichiometry N (usually the number of molecules, sites or subunits per partner or assembly) in data set [3] is 2.

As for “halogenase CtcP from Kitasatospora aureofaciens, full-length (enzyme)”, the stoichiometry N in data set [4], in data set [5] and in data set [6] was 2 each time.

`Cc1cc2nc3c(=O)[nH]c(=O)nc-3n(C[C@H](O)[C@H](O)[C@H](O)COP(=O)(O)OP(=O)(O)OC[C@H]3O[C@@H](n4cnc5c(N)ncnc54)[C@H](O)[C@@H]3O)c2cc1C` [FAD]: the “X-ray crystal structure (FAD soak)” value at CtcP is given as “We obtained crystals of the CtcP-FAD complex by soaking FAD into the CtcP crystals”. Moreover, the “X-ray crystal structure (co-crystal)” value on CtcQ [1] (flavin subsite, second FAD also in the NAD subsite of most active sites) is “determined the crystal structure of CtcQ in complex with FAD and NAD”.

B1: FAD reductase CtcQ from Kitasatospora aureofaciens (N-terminal tag removed) (enzyme, UniProt S4S3E3 1-191, looked up)
chain: MPPEPLSLPLDLAPGLVDGDTFLSIMGALPTGVTVVTTLGPDGEPYGLTCSAACSVSKAPPLLLVCINRDSRVLKALLERGEFAVNVLRGGGESTSARFAAPVDDRFRDVRWEPGSAGGVPVMSADVVAHAECRVAAALDAGDHTIVIGAVVAGGPRPEVPSPLMYWRRSYARWPVEEDPRTAALTLAAEG
notes: a second construct with a C-terminal His6 tag (pET22b) was used only for the reductase activity assay; also called flavin reductase CtcQ; source: E. coli BL21(DE3), purified (Ni2+-chelating chromatography, tag cleavage, S-200 size exclusion); not shown: His10, N-terminal, cleaved
Turning to B1, the “stoichiometry N” value in data set [7] came out at 2.
